# Data: publication PMC10421887 (Scientific Reports, 2023)
# B1: Fab N1G1 (Fab, V domains shown)
# VH: EVQLLESGGGLVQPGGSLRLSCAASGFTFSDYYMHVRQAPGKGLEWVSEINPSSGNTDYADSVKGRFTISRDNSKNTLYLQMNSLRAEDTAVYYCAREYEEHGYYLTDYYFDYWGQGTLVTVSS
# VL: EIVLTQSPGTLSLSPGERATLSCRASQSVSSSALAWYQQKPGQAPRLLIYGASSRATGVPDRFSGSGSGTDFTLTISRLEPEDFAVYYCQQMHSTPWTFGQGTKVEIK
# notes: also called positive control for anti-NP1 & 2 screening
# Target: T1, SARS-CoV-2 Nucleocapsid Protein with GST-tag, biotinylated (Severe acute respiratory syndrome …, UniProt P0DTC9)
# T1 construct: also called NP; N-GST
# Assay: ELISA; […], room temperature; […]
# Conditions: one partner purified
binder,measurement,value
B1,binding result,binds
